According to US20150051136A1 (US Dept. of Health and Human Services, published 2015):

Biological target: T1, sRAGE^CHO(N25T/N81T) (human, UniProt Q15109 26-340)
T1 construct: also called sRAGE (N25T/N81T); N25T/N81T mutant
Test: BIAcore SPR, sRAGE amine-coupled to CM5 chip, S100B as analyte, steady state model

T1 sequence (Q15109 other isoform, or with tags, fused parts or gaps N25T N81T N25T N81T): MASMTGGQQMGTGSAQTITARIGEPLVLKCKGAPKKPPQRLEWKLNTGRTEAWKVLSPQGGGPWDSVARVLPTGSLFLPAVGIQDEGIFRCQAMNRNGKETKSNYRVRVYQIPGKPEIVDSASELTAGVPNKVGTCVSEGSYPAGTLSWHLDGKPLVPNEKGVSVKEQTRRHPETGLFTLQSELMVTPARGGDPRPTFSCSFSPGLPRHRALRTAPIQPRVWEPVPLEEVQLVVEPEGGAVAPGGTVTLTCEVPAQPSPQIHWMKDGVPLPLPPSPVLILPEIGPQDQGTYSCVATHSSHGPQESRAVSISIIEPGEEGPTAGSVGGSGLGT

Kd: 13.6 nM
B1: S100B (ligand)
chain: MSELEKAMVALIDVFHQYSGREGDKHKLKKSELKELINNELSHFLEEIKEQEVVDKVMETLDNDGDGECDFQEFMAFVAMVTTACHEFFEHE
